target: acetylcholine receptor; test: SPR, receptor immobilized, peptide 10 uM

Binder	Binding affinity [RU]	Binding affinity (RU)
RVRRKK [6mer-2-160]	121	–
KWRRKK [6mer-2-161]	154	–
KVISKR [6mer-2-162]	136	–
KWFYRR [6mer-2-163]	149	–
KRQRRK [6mer-2-164]	135	–
KWFTRR [6mer-2-165]	139	–
RWLRKR [6mer-2-166]	125	–
KLFQKR [6mer-2-167]	145	–
RVFLKR [6mer-2-168]	135	–
KRQSRR [6mer-2-169]	123	–
RQYQKK [6mer-2-170]	128	–
RQQTRR [6mer-2-171]	139	–
KVIRKK [6mer-2-172]	128	–
RQQCKK [6mer-2-173]	127	–
KLLRKR [6mer-2-174]	142	–
KVYLRK [6mer-2-175]	137	–
RWIYRR [6mer-2-176]	144	–
RSVTKK [6mer-2-177]	136	–
KWLLRR [6mer-2-178]	133	–
RRVYRR [6mer-2-179]	121	–
RLRLKR [6mer-2-180]	142	–
RWQQKK [6mer-2-181]	139	–
KLFYKK [6mer-2-182]	139	–
RLQLRR [6mer-2-183]	154	–
KWVSRR [6mer-2-184]	136	–
RGYQKR [6mer-2-185]	137	–
KQICRK [6mer-2-186]	127	–

Binder	Binding affinity [RU]	Binding affinity (RU)
KRRRRK [6mer-2-187]	145	–
RGYTKR [6mer-2-188]	142	–
RWQCKK [6mer-2-189]	121	–
KVYLKR [6mer-2-190]	148	–
RQLLKR [6mer-2-191]	154	–
RWFSKK [6mer-2-192]	133	–
KWISKR [6mer-2-193]	127	–
KLRLRK [6mer-2-194]	154	–
KSRQKR [6mer-2-195]	154	–
KSQRKK [6mer-2-196]	121	–
RGQYRR [6mer-2-197]	126	–
KWYYRK [6mer-2-198]	139	–
RGQYKR [6mer-2-199]	137	–
RGVQRK [6mer-2-200]	121	–
KLFLRR [6mer-2-201]	148	–
KCSAKK [6mer-2-799]	–	13
RTAWKK [6mer-2-800]	–	11
RPNIRK [6mer-2-801]	–	24
KETKRR [6mer-2-802]	–	24
RNKERK [6mer-2-803]	–	18
RNCGKR [6mer-2-804]	–	21
RDTMKK [6mer-2-805]	–	12
KHCVRK [6mer-2-806]	–	30
KIWNRK [6mer-2-807]	–	28
RKKFKK [6mer-2-808]	–	21
REPWRR [6mer-2-809]	–	18
KHAKKK [6mer-2-810]	–	18

Binder	Binding affinity [RU]	Binding affinity (RU)
KAMKRK [6mer-2-811]	–	16
KPPEKR [6mer-2-812]	–	33
KKMDRR [6mer-2-813]	–	29
RYMERK [6mer-2-814]	–	28
KICGRK [6mer-2-815]	–	30
RKMGKR [6mer-2-816]	–	15
KCNDKK [6mer-2-817]	–	22
KTPERK [6mer-2-818]	–	13
KFSVRR [6mer-2-819]	–	23
RPNNKK [6mer-2-820]	–	24
RPTMKR [6mer-2-821]	–	33
RCTAKK [6mer-2-822]	–	13
REDWRK [6mer-2-823]	–	25
RITNKR [6mer-2-824]	–	26
KIHARK [6mer-2-825]	–	11
RNTPRK [6mer-2-826]	–	11
KYAEKK [6mer-2-827]	–	13
RMKKKR [6mer-2-828]	–	32
KKKIRR [6mer-2-829]	–	22
RMKFKR [6mer-2-830]	–	21
RMTWRK [6mer-2-831]	–	29
KYHNRR [6mer-2-832]	–	32
RKTWRR [6mer-2-833]	–	14
RFWWKR [6mer-2-834]	–	28
RHCGKR [6mer-2-835]	–	20

Reference: US20250011363A1, “OPTIMIZED SHORTENED PEPTIDE THAT BINDS TO ACETYLCHOLINE RECEPTOR, AND USE THEREOF” (SKINMED CO., LTD., priority 2021, published 2025)
